For one substance, Km and kcat results are on record in doi:10.64898/2025.12.18.695077v1.

This data set has as its system O=P(O)(OC[C@@H](O)CO)OC[C@@H](O)CO. The data set can be described thus: purified protein. The following applies: co-substrate C22:6-CoA 100 uM, pH 7.4, 37 C, 0.05% LMNG.

The term Km denotes the substrate concentration at which the rate is half of its maximum. By kcat is commonly meant the maximal rate divided by the concentration of active sites. Consider “CLN8 (FLAG-STREP-tagged, purified from human Flp-In T-REx 293 cells) (Homo sapiens)”, for which the Michaelis constant (Km) came out at 570 µM and the kcat was determined as 0.8022 s⁻¹.
